US20250197511A1 (HORIZON THERAPEUTICS IRELAND DAC, published 2025)
Substitutions are numbered along the chain they refer to. In names and notes the source's numbering stands.

B1: Teprotumumab reference antibody (antibody, V domains shown)
VH: QVELVESGGGVVQPGRSQRLSCAASGFTFSSYGMHWVRQAPGKGLEWVAIIWFDGSSTYYADSVRGRFTISRDNSKNTLYLQMNSLRAEDTAVYFCARELGRRYFDLWGRGTLVSVSS
VL: EIVLTQSPATLSLSPGERATLSCRASQSVSSYLAWYQQKPGQAPRLLIYDASKRATGIPARFSGSGSGTDFTLTISSLEPEDFAVYYCQQRSKWPPWTFGQGTKVESK
B2: D03-YTE (clone D03 with the YTE mutation M252Y/S254T/T256E, EU numbering) (antibody, human IgG1, kappa, V domains shown)
VH: B1 VH with Y32H, I50Y
VL: EIVLTQSPATLSLSPGERATLSCRASQSVSSALAWYQQKPGQAPRLLIYDASKRATGIPARFSGSGSGTDFTLTISSLEPEDFAVYYCQQRSKYPPWTFGQGTKVESKR

Target: IGF-1R on NCI-H322 cells (UniProt P08069 31-1367, limits assumed)
Sequence (P08069 31-1367 limits assumed): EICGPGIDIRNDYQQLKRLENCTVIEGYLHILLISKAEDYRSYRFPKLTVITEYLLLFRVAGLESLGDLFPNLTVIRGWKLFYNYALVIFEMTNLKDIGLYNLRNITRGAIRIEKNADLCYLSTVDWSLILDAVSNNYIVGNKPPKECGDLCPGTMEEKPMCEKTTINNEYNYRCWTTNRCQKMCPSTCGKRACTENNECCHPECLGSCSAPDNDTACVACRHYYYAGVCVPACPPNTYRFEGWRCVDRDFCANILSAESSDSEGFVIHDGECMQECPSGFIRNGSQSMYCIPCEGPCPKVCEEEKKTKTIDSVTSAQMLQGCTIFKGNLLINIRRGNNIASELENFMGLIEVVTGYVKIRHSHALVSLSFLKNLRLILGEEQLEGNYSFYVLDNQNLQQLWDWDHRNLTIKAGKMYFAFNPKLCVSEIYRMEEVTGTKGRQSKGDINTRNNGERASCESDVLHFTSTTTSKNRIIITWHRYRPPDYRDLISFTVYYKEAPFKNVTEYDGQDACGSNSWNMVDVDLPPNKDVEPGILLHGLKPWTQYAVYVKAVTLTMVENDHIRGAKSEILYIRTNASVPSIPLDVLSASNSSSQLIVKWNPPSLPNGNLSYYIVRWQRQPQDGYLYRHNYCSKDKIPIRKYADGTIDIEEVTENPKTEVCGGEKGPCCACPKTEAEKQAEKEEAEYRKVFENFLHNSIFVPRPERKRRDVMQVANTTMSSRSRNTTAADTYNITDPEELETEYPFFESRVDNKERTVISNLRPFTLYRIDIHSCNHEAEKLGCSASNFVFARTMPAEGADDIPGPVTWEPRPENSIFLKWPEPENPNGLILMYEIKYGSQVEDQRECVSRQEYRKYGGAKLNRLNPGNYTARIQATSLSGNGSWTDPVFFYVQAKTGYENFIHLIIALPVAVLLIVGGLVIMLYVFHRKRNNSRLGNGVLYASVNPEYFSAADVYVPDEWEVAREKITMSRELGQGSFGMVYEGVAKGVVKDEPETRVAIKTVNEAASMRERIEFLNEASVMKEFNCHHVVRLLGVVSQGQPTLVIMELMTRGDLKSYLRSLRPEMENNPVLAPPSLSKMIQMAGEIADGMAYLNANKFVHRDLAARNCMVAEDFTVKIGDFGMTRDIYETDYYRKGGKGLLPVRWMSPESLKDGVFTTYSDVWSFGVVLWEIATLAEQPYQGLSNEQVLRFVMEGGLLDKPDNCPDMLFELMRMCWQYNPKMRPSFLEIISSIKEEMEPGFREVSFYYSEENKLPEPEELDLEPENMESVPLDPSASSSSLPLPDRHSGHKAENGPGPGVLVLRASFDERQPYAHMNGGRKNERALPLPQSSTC
Assay: cell-based or functional assay

Binder | IC50 of inhibition of IGF-1R phosphorylation (antibody dilution started at 100 ug/mL, diluted 1/8)
B1 | 0.397 µg/mL
B2 | 0.0205 µg/mL
